Measurements taken from article PMC10410607.

Legend:
[1] = target: histidine-tagged human C5a (human) (UniProt P01031); assay: SPR; Biacore X100; His-C5a captured on a Ni-activated NTA chip at 25 RU; S512A-ScpA or S512A-79ΔPro flowed at 5.625-90 nM, 30 uL/min, association 180 s, dissociation 200 s; 10 mM HEPES-KOH pH 7.5, 150 mM NaCl, 0.005% Tween 20, 50 uM EDTA; global fit with a Langmuir model; triplicates
[2] = target: histidine-tagged human C5a (human) (UniProt P01031); assay: SPR; Biacore X100; His-C5a captured on a Ni-activated NTA chip at 25 RU; S512A-ScpA or S512A-79ΔPro flowed at 5.625-90 nM, 30 uL/min, association 180 s, dissociation 200 s; 10 mM HEPES-KOH pH 7.5, 150 mM NaCl, 0.005% Tween 20, 50 uM EDTA; global fit, Langmuir model; triplicates

Row | Substance | Kd [1] [nM] | koff [1] [s⁻¹] | kon [1] [M⁻¹ s⁻¹] | Kd [2] [nM]
1 | S512A-79ΔPro, active site mutated propeptide-truncated ScpA (amino acids 79-1032) (from UniProt P15926 79-1032) (enzyme) | 35 | 0.00467 | 187000 | –
2 | S512A-ScpA (active site mutated Streptococcus pyogenes C5a peptidase, amino acids 32-1032) (from UniProt P15926 32-1032) (enzyme) | – | – | – | 35
3 | S512A-79ΔPro (active site mutated, propeptide truncated ScpA, amino acids 79-1032) (from UniProt P15926 79-1032) (enzyme) | – | – | – | 25
4 | S512A-ScpA, active site mutated Streptococcus pyogenes C5a peptidase (amino acids 32-1032) (from UniProt P15926 32-1032) (enzyme) | – | 0.00638 | 182000 | –
5 | S512A-ScpA, active site mutated Streptococcus pyogenes C5a peptidase (amino acids 32-1032) (from UniProt P15926 32-1032) | 25 | – | – | –
